Data on 7 molecules can be found in patent US20220073604A1 (ARGENX BVBA, published 2022).

The target of experiment [1] is human IL-6 (as added in the B9 and 7TD1 bioassays) (human) (UniProt P05231). As to the kind of experiment: cell-based or functional assay.
For experiment [2] the target is unchanged.
Experiment [3] deals with T1, human IL-6 (as added in the B9 and 7TD1 bioassays) (human, UniProt P05231 30-212). As to the kind of experiment: cell-based or functional assay.
The target in experiment [4] is T1, human IL-6 (as added in the B9 and 7TD1 …). As to the kind of experiment: cell-based or functional assay. This is another data set of the same source.
Experiment [5] shares this target. As to the kind of experiment: cell-based or functional assay. The source holds these as a separate data set.
Another experiment deals with T2, human IL-6 (human, UniProt P05231 30-212).
T2 construct: Used where the text says only IL-6 or human IL-6 (crystals: rh IL-6 from Immunotools; cell assays) and for values averaged over the bacterial and eukaryotic IL-6 channels; also called interleukin-6; rh IL-6
As to the kind of experiment: SPR; periplasmic fraction; average of the IL-6 channels. The arrangement: unit not given here. (Surface plasmon resonance follows binding to a sensor surface in real time, without labels.)

Experiment [6] addresses T3, eukaryotically produced human IL-6 (human, UniProt P05231 30-212).
T3 construct: also called eukIL-6; Euk IL-6
As to the kind of experiment: SPR; purified Fab; IL-6 coated on CM5 chip.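 Note: dissociation rate taken from the wash phase, association rate fitted over the injection phase with analyte concentration and dissociation rate as inputs.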
Procedure: (§1) From the washing phase the off-rate (kd) was determined, while from the injection phase the on-rate (ka) was calculated using the concentration and off-rate as parameters.

Experiment [7] deals with T4, bacterially produced human IL-6 (human, UniProt P05231 30-212).
T4 construct: also called bactIL-6; prokaryotic IL-6
As to the kind of experiment: SPR; purified Fab; IL-6 coated on CM5 chip.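 Note: dissociation rate taken from the wash phase, association rate fitted over the injection phase with analyte concentration and dissociation rate as inputs.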
Procedure: as §1

In experiment [8] the target is T3, eukaryotically produced human IL-6. As to the kind of experiment: SPR; periplasmic fraction.
Procedure: as §1
Experiment [9] concerns the target T4, bacterially produced human IL-6. As to the kind of experiment: SPR; periplasmic fraction.
Procedure: as §1
For experiment [10] the target is unchanged. As to the kind of experiment: SPR; periplasmic fraction; ratio bact to euk IL-6.
Procedure: as §1
Experiment [11] concerns the target human IL-6 (as added in the B9 and 7TD1 bioassays) (human) (UniProt P05231). As to the kind of experiment: cell-based or functional assay. This is another data set of the same source.
Experiment [12] has as its target IL-6 (bact-hIL-6, euk-hIL-6 and bact-cy IL-6; 'average binding' of Table 21). As to the kind of experiment: average binding level in the off-rate screen (unit not given; n = 3).
Experiment [13] concerns the target T5, bacterially produced cynomolgus monkey IL-6 (cynomolgus monkey, UniProt P79341 28-212, limits assumed).
T5 construct: also called bact-cy IL-6; HIS-cyIL-6
As to the kind of experiment: off-rate of Fab 111A7 variant on bact-cy IL-6 (binding kinetics, SPR presumed; n = 3).

Residue numbers refer to the chain shown, from its start.

With “CNTO136 (benchmark anti-IL-6 antibody, humanized variant of CNTO328)”, in experiment [1], the IC50, 7TD1 cells amounted to 0.19 pM and the Potency relative to 68F2, 7TD1 cells came out at 3.49. This molecule also yielded an IC50 (read off the curve), B9 cell proliferation in experiment [2] of 0.2 pM.

B1: 129D3 (germlined variant of 68F2), full-length IgG1 (antibody, V domains shown)
VH: EVQLQESGPGLVKPSQTLSLTCTVSGGSITSRYYAWSWIRQPPGKGLEWIGVIDYDGDTYYSPSLKSRVSISWDTSKNQFSLKLSSVTPADTAVYYCARDPDVVTGFHYDYWGQGTMVTVSS
VL: QSALTQPPSVSGTPGQSVTISCAGANNDIGTYAYVSWYQQLPGTAPKLMIYKVTTRASGIPDRFSGSKSGNTASLTISGLQAEDEADYYCASYRNFNNAVFGTGTKLTVL
B1: the “IC50 (read off the curve), B9 cell proliferation” value in experiment [3] is about 0.06 pM. In addition, in experiment [4], the “IC50, 7TD1 cells (129D3#A1.1)” value stood at 0.25 pM; the “IC50, 7TD1 cells (129D3U#15.1)” value worked out at 0.23 pM; the “Potency relative to 68F2, 7TD1 cells (129D3#A1.1)” value stood at 2.65; the “Potency relative to 68F2, 7TD1 cells (129D3U#15.1)” value amounted to 2.91. For the same molecule, in [5], the “IC50, 7TD1 proliferation assay, exp 22.06” value came to 0.791 pM; the “IC50, 7TD1 proliferation assay, exp 29.06” value was 0.574 pM; the “Rel. Potency, 7TD1, exp 29.06” value was 0.98.

B2: Fab 24A3 (Fab, V domains shown)
VH: QVQVQESGGGLVQPGGSLRLSCAASGFTFSNYAMSWVRQAPGKGLEWVSGISFRGGMISYVDSVKGRFTISRDNAKNTLYLQMNSLKPEDTAVYYCAKNSGSSRSNALDAWGQGTLVTVSS
VL: LNFMLTQPPSVSGSPGQKFTIRCTGSFRSDSYVNWYQQLPGTAPKLLINYDDRRVSGVPSRFSGSKSGNSASLTIDGLQAEDEAEYYCSFWDHTFGGHVFGGGTKLTVLG
notes: Fab; also called 28f10(24A3)
As for B2, the average binding with human IL-6 turned out to be 286. Besides, the values for the equilibrium dissociation constant (Kd) in [6] and in experiment [7] were 590 pM and 220 pM, respectively. Moreover, the off-rate (koff) (as a rule, a measure of how fast the partners let go of each other) amounted to 0.00011 s⁻¹ in experiment [6], 4.8e-05 s⁻¹ in experiment [7], 7.6e-05 s⁻¹ in experiment [8] and 8.42e-05 s⁻¹ in experiment [9]. In addition, the ratio bact/euk in [10] is 1.2.

B3: B-E8 (IL-6 neutralizing benchmark antibody) (antibody, from another filing, V domains shown)
VH: QVTLKESGPGILKPSQTLSLTCSFSGFSLSTSGMGVGWIRQPSGKGLEWLAHIWWDDDKYYNPSLKSQLTISKDTSRNQVFLKITSVDTADTATYYCARSYDDYLYYALDYWGQGTSVTVSS
VL: DIVMTQSPATLSVTPGDRVSLSCRASQSISDYLHWYQQKSHESPRLLIKSVSQSISGIPSRFSGSGSGSDFTLSINSVEPEDVGVYYCQNGHSFPLTFGAGTKLELK
With B3, the IC50 (read off the curve), B9 cell proliferation in experiment [2] amounted to 8 pM. In experiment [11], this molecule returned an IC 50, B9 cell proliferation of 5.11 pM and a Rel. potency, B9 cells of 0.2.

B4: Fab 111A7 with the CDR3 methionine changed to Y (Fab, V domains shown)
VH: EVQLLESGGGLVQPGGSLRLSCAASGFTFSSYAMSWVRQAPGKGPEWVSRISAGGGSTYYGDSVKGRFTISRDNSKNTLYLQMNSLRAEDTAVYYCANRAGWGYGDYWGQGTLVTVSS
VL: QTVVTQEPSFSVSPGGTVTLTCGLSSGSVTASNYPGWYQQTPGQAPRALIYSTNDRHSGVPDRFSGSISGNKAALTITGAQAEDEADYYCALDIGDITEFGGGTQLTVL
For the molecule B4, the average binding in experiment [12] worked out at 104. In addition, the off-rate constant (koff) in [13] was 0.000158 s⁻¹.

B5: Fab 111A7 with the CDR3 methionine changed to G (Fab, V domains shown)
VH: B4 VH with Y104G
VL: B4 VL
In turn, B5 displayed an average binding in [12] of 109. In experiment [13], this molecule had an off-rate constant (koff) of 0.000205 s⁻¹.

B6: Fab 111A7 with the CDR3 methionine changed to D (Fab, V domains shown)
VH: B4 VH with Y104D
VL: B4 VL
Consider B6, for which, in [12], the average binding stood at 112. Besides, the off-rate constant (koff) in experiment [13] came out at 0.000234 s⁻¹.
